Results from US20140087995A1 (published 2014).
Numbered stars: 1 amine (or outer) side, 2 acyl side, 3 side chain; on linkers, the order of the positions; unused ones are H or OH. Bridge positions count the residues as written; N and C are the ends. Side chains are listed from the residue outwards. Ends that are not written are not given here. * marks the point of attachment. C20 diacid = O=C(O)CCCCCCCCCCCCCCCCCCC(=O)*; γGlu = O=C(O)[C@H](CCC(=O)[*:2])N[*:1]

B1: N^ε1-[(4S)-4-carboxy-4-(19-carboxynonadecanoylamino)butanoyl]-[Ala14,Arg17,Pro21,Pro27,Pro34]-h-amylin (peptide)
peptide: K([γGlu-C20 diacid])CNTATCATQRLAAFLRHSSPNFGAIPSSTNVGPNTY-NH2
modifications: disulfide 2-7; N-terminus assumed
SMILES: CC[C@H](C)[C@H](NC(=O)[C@H](C)NC(=O)CNC(=O)[C@H](Cc1ccccc1)NC(=O)[C@H](CC(N)=O)NC(=O)[C@@H]1CCCN1C(=O)[C@H](CO)NC(=O)[C@H](CO)NC(=O)[C@H](Cc1c[nH]cn1)NC(=O)[C@H](CCCNC(=N)N)NC(=O)[C@H](CC(C)C)NC(=O)[C@H](Cc1ccccc1)NC(=O)[C@H](C)NC(=O)[C@H](C)NC(=O)[C@H](CC(C)C)NC(=O)[C@H](CCCNC(=N)N)NC(=O)[C@H](CCC(N)=O)NC(=O)[C@@H](NC(=O)[C@H](C)NC(=O)[C@@H]1CSSC[C@H](NC(=O)[C@@H](N)CCCCNC(=O)CC[C@H](NC(=O)CCCCCCCCCCCCCCCCCCC(=O)O)C(=O)O)C(=O)N[C@@H](CC(N)=O)C(=O)N[C@@H]([C@@H](C)O)C(=O)N[C@@H](C)C(=O)N[C@@H]([C@@H](C)O)C(=O)N1)[C@@H](C)O)C(=O)N1CCC[C@H]1C(=O)N[C@@H](CO)C(=O)N[C@@H](CO)C(=O)N[C@H](C(=O)N[C@@H](CC(N)=O)C(=O)N[C@H](C(=O)NCC(=O)N1CCC[C@H]1C(=O)N[C@@H](CC(N)=O)C(=O)N[C@H](C(=O)N[C@@H](Cc1ccc(O)cc1)C(N)=O)[C@@H](C)O)C(C)C)[C@@H](C)O
notes: also called compound 94
B2: N^ε1-[(4S)-4-carboxy-4-(19-carboxynonadecanoylamino)butanoyl]-[Glu14,Arg17,Pro21,Pro27,Arg34,Glu35]-h-amylin (peptide)
peptide: K([γGlu-C20 diacid])CNTATCATQRLAEFLRHSSPNFGAIPSSTNVGRETY-NH2
modifications: disulfide 2-7; N-terminus assumed
SMILES: CC[C@H](C)[C@H](NC(=O)[C@H](C)NC(=O)CNC(=O)[C@H](Cc1ccccc1)NC(=O)[C@H](CC(N)=O)NC(=O)[C@@H]1CCCN1C(=O)[C@H](CO)NC(=O)[C@H](CO)NC(=O)[C@H](Cc1c[nH]cn1)NC(=O)[C@H](CCCNC(=N)N)NC(=O)[C@H](CC(C)C)NC(=O)[C@H](Cc1ccccc1)NC(=O)[C@H](CCC(=O)O)NC(=O)[C@H](C)NC(=O)[C@H](CC(C)C)NC(=O)[C@H](CCCNC(=N)N)NC(=O)[C@H](CCC(N)=O)NC(=O)[C@@H](NC(=O)[C@H](C)NC(=O)[C@@H]1CSSC[C@H](NC(=O)[C@@H](N)CCCCNC(=O)CC[C@H](NC(=O)CCCCCCCCCCCCCCCCCCC(=O)O)C(=O)O)C(=O)N[C@@H](CC(N)=O)C(=O)N[C@@H]([C@@H](C)O)C(=O)N[C@@H](C)C(=O)N[C@@H]([C@@H](C)O)C(=O)N1)[C@@H](C)O)C(=O)N1CCC[C@H]1C(=O)N[C@@H](CO)C(=O)N[C@@H](CO)C(=O)N[C@H](C(=O)N[C@@H](CC(N)=O)C(=O)N[C@H](C(=O)NCC(=O)N[C@@H](CCCNC(=N)N)C(=O)N[C@@H](CCC(=O)O)C(=O)N[C@H](C(=O)N[C@@H](Cc1ccc(O)cc1)C(N)=O)[C@@H](C)O)C(C)C)[C@@H](C)O
B3: N^ε1-[(4S)-4-carboxy-4-(19-carboxynonadecanoylamino)butanoyl]-[Arg17,Pro21,Pro27,Arg34]-h-amylin (peptide)
peptide: K([γGlu-C20 diacid])CNTATCATQRLANFLRHSSPNFGAIPSSTNVGRNTY-NH2
modifications: disulfide 2-7; N-terminus assumed
SMILES: CC[C@H](C)[C@H](NC(=O)[C@H](C)NC(=O)CNC(=O)[C@H](Cc1ccccc1)NC(=O)[C@H](CC(N)=O)NC(=O)[C@@H]1CCCN1C(=O)[C@H](CO)NC(=O)[C@H](CO)NC(=O)[C@H](Cc1c[nH]cn1)NC(=O)[C@H](CCCNC(=N)N)NC(=O)[C@H](CC(C)C)NC(=O)[C@H](Cc1ccccc1)NC(=O)[C@H](CC(N)=O)NC(=O)[C@H](C)NC(=O)[C@H](CC(C)C)NC(=O)[C@H](CCCNC(=N)N)NC(=O)[C@H](CCC(N)=O)NC(=O)[C@@H](NC(=O)[C@H](C)NC(=O)[C@@H]1CSSC[C@H](NC(=O)[C@@H](N)CCCCNC(=O)CC[C@H](NC(=O)CCCCCCCCCCCCCCCCCCC(=O)O)C(=O)O)C(=O)N[C@@H](CC(N)=O)C(=O)N[C@@H]([C@@H](C)O)C(=O)N[C@@H](C)C(=O)N[C@@H]([C@@H](C)O)C(=O)N1)[C@@H](C)O)C(=O)N1CCC[C@H]1C(=O)N[C@@H](CO)C(=O)N[C@@H](CO)C(=O)N[C@H](C(=O)N[C@@H](CC(N)=O)C(=O)N[C@H](C(=O)NCC(=O)N[C@@H](CCCNC(=N)N)C(=O)N[C@@H](CC(N)=O)C(=O)N[C@H](C(=O)N[C@@H](Cc1ccc(O)cc1)C(N)=O)[C@@H](C)O)C(C)C)[C@@H](C)O
notes: also called compound 79
B4: N^ε1-[(4S)-4-carboxy-4-(19-carboxynonadecanoylamino)butanoyl]-[Arg14,Arg17,Pro21,Pro27]-h-amylin (peptide)
peptide: K([γGlu-C20 diacid])CNTATCATQRLARFLRHSSPNFGAIPSSTNVGSNTY-NH2
modifications: disulfide 2-7; N-terminus assumed
SMILES: CC[C@H](C)[C@H](NC(=O)[C@H](C)NC(=O)CNC(=O)[C@H](Cc1ccccc1)NC(=O)[C@H](CC(N)=O)NC(=O)[C@@H]1CCCN1C(=O)[C@H](CO)NC(=O)[C@H](CO)NC(=O)[C@H](Cc1c[nH]cn1)NC(=O)[C@H](CCCNC(=N)N)NC(=O)[C@H](CC(C)C)NC(=O)[C@H](Cc1ccccc1)NC(=O)[C@H](CCCNC(=N)N)NC(=O)[C@H](C)NC(=O)[C@H](CC(C)C)NC(=O)[C@H](CCCNC(=N)N)NC(=O)[C@H](CCC(N)=O)NC(=O)[C@@H](NC(=O)[C@H](C)NC(=O)[C@@H]1CSSC[C@H](NC(=O)[C@@H](N)CCCCNC(=O)CC[C@H](NC(=O)CCCCCCCCCCCCCCCCCCC(=O)O)C(=O)O)C(=O)N[C@@H](CC(N)=O)C(=O)N[C@@H]([C@@H](C)O)C(=O)N[C@@H](C)C(=O)N[C@@H]([C@@H](C)O)C(=O)N1)[C@@H](C)O)C(=O)N1CCC[C@H]1C(=O)N[C@@H](CO)C(=O)N[C@@H](CO)C(=O)N[C@H](C(=O)N[C@@H](CC(N)=O)C(=O)N[C@H](C(=O)NCC(=O)N[C@@H](CO)C(=O)N[C@@H](CC(N)=O)C(=O)N[C@H](C(=O)N[C@@H](Cc1ccc(O)cc1)C(N)=O)[C@@H](C)O)C(C)C)[C@@H](C)O
notes: also called compound 83

Key:
[1] = molecular target: T1, human calcitonin receptor (human, UniProt P30988 25-474); experiment: cell-based or functional assay
T1 sequence (looked up): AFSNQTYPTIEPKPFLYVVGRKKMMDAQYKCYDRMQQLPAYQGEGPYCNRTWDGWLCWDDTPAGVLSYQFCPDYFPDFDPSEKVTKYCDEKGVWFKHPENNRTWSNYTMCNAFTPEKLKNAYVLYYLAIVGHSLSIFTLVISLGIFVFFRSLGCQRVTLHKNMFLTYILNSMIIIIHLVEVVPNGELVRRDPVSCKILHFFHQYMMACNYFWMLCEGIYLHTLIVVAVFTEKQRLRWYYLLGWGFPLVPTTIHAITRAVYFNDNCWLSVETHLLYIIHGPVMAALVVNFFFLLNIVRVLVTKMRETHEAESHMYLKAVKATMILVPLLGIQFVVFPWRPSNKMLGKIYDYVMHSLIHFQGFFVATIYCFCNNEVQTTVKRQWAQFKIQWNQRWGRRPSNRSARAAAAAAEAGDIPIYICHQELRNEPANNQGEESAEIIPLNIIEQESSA

[2] = molecular target: T2, human amylin 3(a) receptor (human calcitonin receptor co-expressed with RAMP-3) (human, UniProt P30988 25-474; O60896 24-148, limits assumed); experiment: cell-based or functional assay
T2 sequence (looked up) 1: T1 sequence (looked up)
T2 sequence (looked up) 2: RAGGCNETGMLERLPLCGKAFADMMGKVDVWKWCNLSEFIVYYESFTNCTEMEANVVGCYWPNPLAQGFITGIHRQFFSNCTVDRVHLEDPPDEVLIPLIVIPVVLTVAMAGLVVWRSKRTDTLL

Row | Ratio hCT/hAmylin funct. [1] | hCTR funct. EC50 [1] [nM] | hAmylin-R funct. EC50 [2] [nM] | Binder
1 | 4.5 | 0.316 | 0.07 | B1
2 | 6.5 | 2.75 | 0.421 | B2
3 | 24.5 | 3.94 | 0.161 | B3
4 | 41.6 | 16.8 | 0.405 | B4
